We go through 18 molecules from patent publication US20230382979A1 (ADAPTIVE BIOTECHNOLOGIES, published 2023).

Assay [1] has as its target T1, Receptor-binding domain (RBD) of the SARS-CoV-2 spike protein, WA01/2020 strain (SARS-CoV-2, WA01/2020 strain, UniProt P0DTC2 319-541). Briefly: dose-response ELISA on coated antigen.
For assay [2], the target named is T1, Receptor-binding domain (RBD) of the …. The experiment in a line: SPR (Biacore 8K), antigen immobilized, antibody injected.
The target of assay [3] is SARS-CoV-2 spike protein, B1.1.7 (alpha variant), borne on lentiviral pseudovirus (SARS-CoV-2, B1.1.7). Briefly: cell-based or functional assay.
The target in assay [4] is T1, Receptor-binding domain (RBD) of the …. The experiment in a line: ELISA, antibody blocks RBD binding to human ACE2.
The target in assay [5] is SARS-CoV-2 spike protein on live virus, strain USA-WA1/2020 (SARS-CoV-2, WA01/2020 strain, UniProt P0DTC2 14-1273). Briefly: cell-based or functional assay.

B1: antibody 2050 (antibody, V domains shown)
VH: QVQLVQSGAEVKKPGASVKVPCKVSGYTFTDHFIHWVRQAPGQGLEWMGWISPNSGGRNYTQKFQGRVTLTRDTAITTVHMDLSSLTPDDTAVYYCARDVRWAQLQGGFDLWGQGTMVTVSS
VL: QSALTQPASVSGSPGQSITISCTGTSSDVGSYNLVSWYQQHPGKAPKLMIYEVSKRPSGVSNRFSGSKSGNTASLTISGLQADDEADYYCCSYAGDNNFLFGGGTSLTVL
Regarding B1, the EC50 in assay [1] stood at 0.025 nM. The same molecule displayed a Kd in assay [2] of 0.115 nM. Also, the “Pseudo Neut, B1.1.7 IC50 (pM)” value in assay [3] was found to be 200 pM. For the same molecule, the concentration for half-maximal inhibition (IC50) in assay [4] amounted to 0.727 nM. For the same molecule, in assay [5], the “Live Neut, WA1/2020 IC50 (pM)” value was 36 pM.

B2: antibody 1439 (antibody, V domains shown)
VH: QVQLQESGPGLVKPSETLSLTCTVSGDSISTYYWSWIRQPPGKGLEWIGYIHYSGSTNYNPSLKSRVAVSVDTSKNQFSLKLSSVTAADTAVYYCARGGGVFGVVINFDYWGQGILVTVSS
VL: NFMLTQPYSVSESPGKTVTISCTRSSGSIASNYVQWYQQRPGSAPTTVIYEDNQRPSGVPDRFSGSIDSSSNSASLTISGLKTEDEADYYCQSRDSSNPVVFGGGTKLTVL
Molecule B2 registered an EC50 in assay [1] of 0.0099 nM. Also, the Kd in assay [2] turned out to be 0.0176 nM. This molecule registered a half-inhibitory concentration (IC50) in assay [4] of 0.117 nM.

B3: antibody 1679 (antibody, V domains shown)
VH: QITLKESGPTLVKPTQTLTLTCTFSGFSLSTVGVGVAWIRQPPGKALEWLALIYWDDDKRYSPSLKSRLTITKDTSKNHVVLTMTNMDPVDTATYYCAHHIIAALVDVWGKGTTVTVSS
VL: QSALTQPASVSGSPGQSITISCTGTSSDVGGNNYVSWYQHHPGEAPKLMIYEVSNRPSGVSNRFSGSKSGNTASLTISGLQAEDEADYYCSSYTTSSTLVVFGGGSKLTVL
The molecule B3 came in with an EC50 in assay [1] of 0.003 nM. For the same molecule, the Kd in assay [2] amounted to 1.01 nM. Moreover, the IC50 in assay [4] was found to be 0.07 nM. In addition, the “Live Neut, WA1/2020 IC50 (pM)” value in assay [5] is 19 pM.

B4: antibody 2598 (antibody, V domains shown)
VH: QVQLQESGPGLVKPSGTLSLTCVVSGGSISSSNWWSWVRQPPGKGLEWIGETFHSGSFNYNPSLKSRVTISVDKSKNQFSLKLSSVTAADTAIYYCATTRVGYEGHFYYYGMDVWGQGTTVTVSS
VL: DIQMTQSPSSVSASVGDRVTITCRASQGISSWLAWYQQKPGKAPKLLIYAASSLQSGVPSRFSGSGSGTDFTLTISSLQPEDFATYYCQQANRFPWTFGQGTKVEIK
For B4, the “Live Neut, WA1/2020 IC50 (pM)” value in assay [5] amounted to 586 pM.

B5: antibody 935 (antibody, V domains shown)
VH: EVQLVESGGGLVQPGGSLRLSCAASGFTVSSNYMSWVRQAPGKGLEWVSVIYSGGSTFYADSVKGRFTISRDNSRNTLYLQMNSLRAEDTAVYYCARDWGEFFFDFWGQGALVTVSS
VL: EIVLTQSPGTLSLSPGERATLSCRASQTISSSYLAWYQQKPGQAPRLLISGASSRATGIPDRFSGSGSGTDFTLTISRLEPEDFAVYYCQQYGSSPRTFGQGTNVEIK
For the molecule B5, the half-maximal effective concentration (EC50) in assay [1] worked out at 0.024 nM. In assay [2], this molecule had a Kd of 0.406 nM. The “Pseudo Neut, B1.1.7 IC50 (pM)” value in assay [3] is 1170 pM. In addition, the IC50 in assay [4] came to 0.83 nM. The “Live Neut, WA1/2020 IC50 (pM)” value in assay [5] turned out to be 64 pM.

B6: antibody 1671 (antibody, V domains shown)
VH: EVQLVESGGGLVKPGGSLRLSCAASGFTFSTYNMNWVRQAPGKGLEWVSSISSNSNYIYYADSMKGRFTISRDNAKNSLYLQMNSLRAEDTAVYYCARDMDPLPYFDWLLYAFDVWGQGTMVTVSS
VL: EIVLTQSPGTLSLSPGERATLSCRASQSVSGSYLAWYQQKPGQAPRLLIYGASSRATGIPDRFSGSGSGTDFTLTISRLEPEDFAVYYCQQYGSPIFTFGPGTKVDIK
On to B6, for which, in assay [5], the “Live Neut, WA1/2020 IC50 (pM)” value was 9 pM.

B7: antibody 2432 (antibody, V domains shown)
VH: QVQLVQSGAEVKKPGSSVKVSCKASGDTFSSYAISWVRQAPGQGLEWLGGIIPIFGSADYAQKFQGRVTITADEFTSTAYMELSSLRSEDTAVYFCAREKYGDYGEGPLYNFDYWGQGTLVTVSS
VL: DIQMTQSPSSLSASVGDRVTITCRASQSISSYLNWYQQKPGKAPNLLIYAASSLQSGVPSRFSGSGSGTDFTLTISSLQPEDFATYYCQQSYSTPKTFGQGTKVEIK
As to B7, the “Live Neut, WA1/2020 IC50 (pM)” value in assay [5] came to 26 pM.

B8: antibody 937 (antibody, V domains shown)
VH: EVQLVESGGGLVQPGRSLRLSCAASGFTFDDYAMHWVRQAPGKGLEWVSGISWNSGSIGYADSVKGRFTISRDNAKNSLYLQMNSLKPEDTALYYCAKSTTSCYNGSQCPTKRPKPLESWGQGTLVIVSA
VL: DIQMTQSPSTLSAFVGDRVTITCRASQSINNWLAWYQQKPGEVPKLLIYKASSLENGVPSRFSGSGFGTEFTLTISSLQPDDFAIYYCQQYYSHSHTFGQGTKLEIK
Take B8: in assay [5], the “Live Neut, WA1/2020 IC50 (pM)” value was 140 pM.

B9: antibody 2020 (antibody, V domains shown)
VH: QVQLVQSGAEVKKPGASVKVSCKASGYTFTDYFMHWVRQAPGQGLEWMGWVNPLSGGTNFAQKFQGRVTMTSDTSITTVYMELSRLRSDDTAVYYCARDPPLYSSTYGMDVWGQGTTVTVSS
VL: QSALTQPASVSGSPGQSITISCTGTSSDVGAYNYVSWYQQHPGKAPKLMIYDVSDRPSGVSNRFSGSKSGNTASLTISGLQAEDEADYYCSSYTISSSVVFGGGTKLTVL
B9 gave an EC50 in assay [1] of 0.088 nM. The molecule further displayed a Kd in assay [2] of 0.0011 nM. In assay [3], the “Pseudo Neut, B1.1.7 IC50 (pM)” value is 13 pM. The same molecule showed a half-maximal inhibitory concentration (IC50) in assay [4] of 1.41 nM. Besides, in assay [5], the “Live Neut, WA1/2020 IC50 (pM)” value is 14 pM.

B10: antibody 2080 (antibody, V domains shown)
VH: QVQLQQWGAGLLKPSETLSLTCAVYGGSFSGYYWSWIRQPPGKGLEWIGRINDIGSTDYNPSLKSRVTISVDTSKNQFSLKLTSVTAADTAVYYCAREPFDSEGTFDYWGQGTLVIVSS
VL: DIQMTQPPSTLSASVGDRVTITCRASQSISRWLAWYRQKPGKAPKLLIYDASSLQSGVPSRFSGSGSGTEFTLTISSLQPDDLATYYCQQYNTYPYTFGQGTKLEIK
For the molecule B10, the “Live Neut, WA1/2020 IC50 (pM)” value in assay [5] stood at 169 pM.

B11: antibody 941 (antibody, V domains shown)
VH: QVQLVQSGAEVKKPGSSVKVSCKASGGTFSNSAINWVRQAPGQGLEWMGGIIPLFGAADYAQKFQARVTITADKSTTTSYMELSSLRSEDTAVYYCARDTLEHDDVWGNFRLSLPLSFWGQGTLVTVSS
VL: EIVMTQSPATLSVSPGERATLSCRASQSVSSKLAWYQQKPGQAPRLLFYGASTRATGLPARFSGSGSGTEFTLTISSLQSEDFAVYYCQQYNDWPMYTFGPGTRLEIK
In assay [1], B11 displayed a concentration giving a half-maximal response (EC50) of 0.024 nM. Binding in assay [2] was characterised by a dissociation constant (Kd) of 0.062 nM. The “Pseudo Neut, B1.1.7 IC50 (pM)” value in assay [3] is 533 pM. This molecule also yielded a 50% inhibitory concentration (IC50) in assay [4] of 0.96 nM. In addition, in assay [5], the “Live Neut, WA1/2020 IC50 (pM)” value stood at 24 pM.

B12: antibody 767 (antibody, V domains shown)
VH: QVQVVQSGAEVKKPGASVKVSCTASGHTFTGYAIHWVRQAPGQRLEWMGLINAGGIYRTYSQRFQGRVTITRDTSASTAYMELTGLTSEDTAVYYCARANYGSGSFSDHWGQGTLVTVSS
VL: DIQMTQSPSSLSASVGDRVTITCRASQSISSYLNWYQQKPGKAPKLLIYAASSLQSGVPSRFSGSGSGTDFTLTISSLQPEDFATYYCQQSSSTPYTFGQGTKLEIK
In turn, B12 registered a 50% effective concentration (EC50) in assay [1] of 3.47 nM. Moreover, in assay [2], the dissociation constant (Kd) is 24.3 nM. The IC50 in assay [4] turned out to be 20.9 nM. In assay [5], the “Live Neut, WA1/2020 IC50 (pM)” value came out at 1730 pM.

B13: antibody 2025 (antibody, V domains shown)
VH: QVQLVQSGAEVKKPGASVKVSCKVSGYTLIELSMHWVRQAPGKGLEWMGGFDPEDVETIYAQKFQGRVTMTEDTSTDTAYMELSSLRSEDTAVYYCATAYAVQWRGMIGYWGQGTLVTVSS
VL: QSALTQPASVSGSPGQSITISCTGTSSDVGSYNLVSWYQQHPGKAPKLMIYEVSKRPSGVSNRFSGSKSGNTASLTISGLQAEDEADYYCSSYAGSSTFSYVFGTGTKVTVL
B13: in assay [1], the EC50 was found to be 0.113 nM. The Kd in assay [2] is 7.13 nM. Besides, the “Live Neut, WA1/2020 IC50 (pM)” value in assay [5] was determined as 118 pM.

B14: antibody 2646 (antibody, V domains shown)
VH: QVQLVQSGAEVKKPGASVKVSCKVSGYTLTELSIHWVRQAPGKGLEWMGGFDPEDAETIYAQKFQGRVTMTEDTSTDTAYMELSSLRSEDTAVYYCATATAVAGTVFNYQYHYGLDFWGQGTTVTVSS
VL: not shown
For the molecule B14, the “Live Neut, WA1/2020 IC50 (pM)” value in assay [5] worked out at 19 pM.

B15: antibody 1213 (antibody, V domains shown)
VH: QMQLVQSGAEVKKTGSSVKVSCEASENTFTNRYLHWVRQAPGQALEWMGWITPFQGNTHYAQKFQDRVTITRDRSMNTVYMELSSLRSEDTAIYYCASGGQYGPGSYYFEFWGQGTLVTVSS
VL: EIVMTQSPATLSVSPGERATLSCRASQSIRNNLAWYRQKPGQAPRLLIYGASTRAAGVPARFSGSGSGTEFTLTISSLQSEDFAVYYCQQYINWPPLTFGGGTKVEIK
The molecule B15 showed an EC50 in assay [1] of 0.051 nM. Further, the dissociation constant (Kd) in assay [2] is 1.72 nM. Further, the IC50 in assay [4] was found to be 7.74 nM. Further, the “Live Neut, WA1/2020 IC50 (pM)” value in assay [5] was found to be 2590 pM.

B16: antibody 1227 (antibody, V domains shown)
VH: QMQLVQSGAEVKKTGSSVKVSCEASGYTFTNRYLHWVRQAPGQALEWMGWITPFQGNTNYAQKFQDRVTITRDMSMNTVYMELSSLRSEDTAKYYCASGGQYGAGSYYLEDWGQGTLVTVSS
VL: EIVMTQSPATLSVSPGERATLSCRASQSVRSNLAWYRQKPGQAPRLLIYGASTRATGVPARFSGSGSGTEFTLTISSLQSEDFAVYYCQQYINWPPLTFGGGTRVEIK
For the molecule B16, the concentration for a half-maximal effect (EC50) in assay [1] stood at 0.107 nM. In assay [2], this molecule showed an equilibrium dissociation constant (Kd) of 2.74 nM. In addition, in assay [4], the concentration for half-maximal inhibition (IC50) came to 14.5 nM. For the same molecule, the “Live Neut, WA1/2020 IC50 (pM)” value in assay [5] is 1490 pM.

B17: antibody 1231 (antibody, V domains shown)
VH: QVQLVQSGSELKKPGASVKVSCTGYGYTFTSYAMNWVRQAPGQGLEWMGWINTNTGHPAYAQGFTGRFVFSLDSSVSTAYLQISSLKAEDTAVYYCATTIRAGGYFDFWGQGTLVTVSS
VL: DIQLTQSPSFLSASVGDRVTITCRASQGISSYLAWFQQKPGKAPKLLIYVVSILQSGVPSRFSGSGSGTEFTLTISSLQPEDFATYYCQQLNSYPYTFGQGTKLEIK
The molecule B17 displayed an EC50 in assay [1] of 0.018 nM. Also, binding in assay [2] was characterised by a dissociation constant (Kd) of 2.54 nM. This molecule returned an IC50 in assay [4] of 3.69 nM. Also, the “Live Neut, WA1/2020 IC50 (pM)” value in assay [5] was 9510 pM.

B18: antibody 2606 (antibody, V domains shown)
VH: EVQLVESGGGLVKPGGSLRLSCAASGFTFSSYSMNWVRQAPGKGLEWVSSITSSSGYMYYADSVKGRFTISRDNAKNSLYLQLNSLRAEDTAVYYCAKDSAFDLWEVRSYYYVMDVWGQGTTVTVSS
VL: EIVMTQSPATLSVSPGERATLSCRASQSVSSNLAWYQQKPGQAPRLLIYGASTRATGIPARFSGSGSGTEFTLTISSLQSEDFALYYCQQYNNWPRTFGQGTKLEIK
Consider B18, for which the “Live Neut, WA1/2020 IC50 (pM)” value in assay [5] came out at 474 pM.
